# From publication PMC10244618
# “And” between values parts separate entries of the source, which are not always exact repeats. Equal entries are not always repeated.
# B1: NF2 (merlin) isoform 7, human, full length (507 aa, lacks exons 2-3 = isoform-1 residues 39-121; exon-16 C-terminus), P35240-4 (parent)
# chain: MAGAIASRMSFSSLKRKQPKTFTVRIVTMDAEMEFNCEVKKQILDEKIYCPPEASVLLASYAVQAKYGDYDPSVHKRGFLAQEELLPKRVINLYQMTPEMWEERITAWYAEHRGRARDEAEMEYLKIAQDLEMYGVNYFAIRNKKGTELLLGVDALGLHIYDPENRLTPKISFPWNEIRNISYSDKEFTIKPLDKKIDVFKFNSSKLRVNKLILQLCIGNHDLFMRRRKADSLEVQQMKAQAREEKARKQMERQRLAREKQMREEAERTRDELERRLLQMKEEATMANEALMRSEETADLLAEKAQITEEEAKLLAQKAAEAEQEMQRIKATAIRTEEEKRLMEQKVLEAEVLALKMAEESERRAKEADQLKQDLQEAREAERRAKQKLLEIATKPTYPPMNPIPAPLPPDIPSFNLIGDSLSFDFKDTDMKRLSMEIEKEKVEYMEKSKHLQEQLNELKTEIEALKLKERETALDILHNENSDRGGSSKHNTIKKPQAQGRRPICI
# Variants of: B1
# Test: reverse yeast two-hybrid deep mutational scan (rY2H-seq): NF2 isoform 7 mutant library as bait mated with wild-type prey strains; selection on medium lacking adenine for non-interacting pairs; NextSeq paired-end sequencing; enrichment vs …
# Details: with EMILIN1 (elastin microfibril interfacer 1), Q9Y6C2; yeast diploids after mating (RBait_S3 x RPrey_S3), 30 °C, selection for reporter genes on NB agar; human ABL2 co-expressed as the kinase-dead K35M mutant …; HIGHER = WEAKER BINDING (the opposite of display enrichments): higher = stronger loss of interaction: reverse Y2H selects yeast in which bait and prey do NOT interact (growth without adenine), so a …; hits-only table; scale: rY2H score; numbering: uniprot, sequence starts at 1
row,Variant,enrichment
1,S172F,1.58
2,I213F,7.19 and 3.36
3,A406F,10.8

# Same assay, conditions: with EMILIN1 (elastin microfibril interfacer 1), Q9Y6C2; yeast diploids after mating (RBait_S3 x RPrey_S3), 30 °C, selection for reporter genes on NB agar; human tyrosine kinase ABL2 co-expressed as the active kinase …; HIGHER = WEAKER BINDING (the opposite of display enrichments): higher = stronger loss of interaction: reverse Y2H selects yeast in which bait and prey do NOT interact (growth without adenine), so a …; hits-only table; scale: rY2H score; numbering: uniprot, sequence starts at 1
row,Variant,enrichment
1,I213F,3.35
2,N402F,4.91
3,I505F,1.61

# Same assay, conditions: with KDM1A (lysine-specific histone demethylase 1A; the table's label AOF2 is a gene synonym of KDM1A), O60341; yeast diploids after mating (RBait_S3 x RPrey_S3), 30 °C, selection for reporter genes on NB agar; human tyrosine kinase ABL2 co-expressed as the active kinase …; HIGHER = WEAKER BINDING (the opposite of display enrichments): higher = stronger loss of interaction: reverse Y2H selects yeast in which bait and prey do NOT interact (growth without adenine), so a …; hits-only table; scale: rY2H score; numbering: uniprot, sequence starts at 1
row,Variant,enrichment
1,I213F,6.76
2,I505F,2.14
3,S60F,3.51

# Same assay, conditions: with NF2 C-terminal domain (wild type; homomeric NF2-NF2 interaction), P35240; yeast diploids after mating (RBait_S3 x RPrey_S3), 30 °C, selection for reporter genes on NB agar; human ABL2 co-expressed as the kinase-dead K35M mutant …; HIGHER = WEAKER BINDING (the opposite of display enrichments): higher = stronger loss of interaction: reverse Y2H selects yeast in which bait and prey do NOT interact (growth without adenine), so a …; hits-only table; partner unresolved; scale: rY2H score; numbering: uniprot, sequence starts at 1
row,Variant,enrichment
1,I213F,4.21
2,I505F,2.29

# Same assay, conditions: with PIK3R3 (phosphatidylinositol 3-kinase regulatory subunit gamma), Q92569; yeast diploids after mating (RBait_S3 x RPrey_S3), 30 °C, selection for reporter genes on NB agar; human tyrosine kinase ABL2 co-expressed as the active kinase …; HIGHER = WEAKER BINDING (the opposite of display enrichments): higher = stronger loss of interaction: reverse Y2H selects yeast in which bait and prey do NOT interact (growth without adenine), so a …; hits-only table; scale: rY2H score; numbering: uniprot, sequence starts at 1
row,Variant,enrichment
1,I213F,15.3
2,L57F,1.98
3,S204F,3.76 and 3.21

# Same assay, conditions: with KDM1A (lysine-specific histone demethylase 1A; the table's label AOF2 is a gene synonym of KDM1A), O60341; yeast diploids after mating (RBait_S3 x RPrey_S3), 30 °C, selection for reporter genes on NB agar; human ABL2 co-expressed as the kinase-dead K35M mutant …; HIGHER = WEAKER BINDING (the opposite of display enrichments): higher = stronger loss of interaction: reverse Y2H selects yeast in which bait and prey do NOT interact (growth without adenine), so a …; hits-only table; scale: rY2H score; numbering: uniprot, sequence starts at 1
row,Variant,enrichment
1,N402F,24.7
